By Kd is commonly meant the equilibrium constant for the complex coming apart.

Where two headings read alike, the source gives them in different places.

The record followed here is patent publication US20240400618A1 (GRIFOLS DIAGNOSTIC SOLUTIONS, published 2024).

Targets include commercial RBD protein (SARS-CoV-2, UniProt P0DTC2 319-541); pxENB14-His-TEV-RBD (SARS-CoV-2, UniProt P0DTC2 319-541); pxEBNCP2-tPa-His-TEV-S1 (SARS-CoV-2, UniProt P0DTC2 14-680); pxEBNCP16-IL2-FLS-CT-His (SARS-CoV-2, UniProt P0DTC2 16-1213); pxEBNCP1-His-TEV-S1 (SARS-CoV-2, UniProt P0DTC2 14-680); pxEBNCP4-tPa-S1-His (SARS-CoV-2, UniProt P0DTC2 15-681); pxEBNCP3-S1-His (SARS-CoV-2, UniProt P0DTC2 15-681); pxEBNCP14-tPa-FLS-CT-His (SARS-CoV-2, UniProt P0DTC2 16-1213); pxAM-FLS-A-TB-His (SARS-CoV-2, UniProt P0DTC2 15-1213); pxENBCP20-FLS-CT-His-TST (SARS-CoV-2, UniProt P0DTC2 15-1213); pxENBCP17-FLS-CT-His-SBP (SARS-CoV-2, UniProt P0DTC2 15-1213).

Assay [1] deals with T1, pxENB9-FLS-CT-His (SARS-CoV-2, UniProt P0DTC2 15-1213).
Assay [2] has as its target T2, pxENB17-RBD-His (SARS-CoV-2, UniProt P0DTC2 319-541).
T2 construct: domain: RBD
Put plainly: BLI (Octet), ACE2 construct loaded on SA tips by its tag, RBD as analyte. In general terms: BLI is a label-free optical method that tracks binding on a fibre tip over time.

Assay [3] deals with T2, pxENB17-RBD-His.
Assay [4] concerns the target T1, pxENB9-FLS-CT-His. The source holds these as a separate data set.
The target in assay [5] is T2, pxENB17-RBD-His. This is another data set of the same source.
The target of assay [6] is T1, pxENB9-FLS-CT-His. The source holds these as a separate data set.
The target of assay [7] is T3, pxENB8-FLS-TN-His (SARS-CoV-2, UniProt P0DTC2 15-1213).
For assay [8], the target named is T4, pxENB1-His-TEV-FLS-TN (SARS-CoV-2, UniProt P0DTC2 14-1213).
Assay [9] has as its target T5, pxENB5-his-TEV-FLS (SARS-CoV-2, UniProt P0DTC2 14-1213).
In assay [10] the target is T6, pxENB12-FLS-His (SARS-CoV-2, UniProt P0DTC2 15-1213).
Assay [11] concerns the target T7, pxENB2-His-TEV-FLS-CT (SARS-CoV-2, UniProt P0DTC2 14-1213).
In assay [12] the target is T1, pxENB9-FLS-CT-His. This is another data set of the same source.
In assay [13] the target is pxENBEP17_TPA_Nuc(1-182)_Spike (15-1216, GAAS, PP)_10xHis (SARS-CoV-2).
Assay [14] concerns the target T3, pxENB8-FLS-TN-His. This is another data set of the same source.
Assay [15] deals with T4, pxENB1-His-TEV-FLS-TN. The source holds these as a separate data set.
In assay [16] the target is pxEBNCP15-mIgGHC-FLS-CT-His (SARS-CoV-2, UniProt P0DTC2 16-1213).
Assay [17] addresses T5, pxENB5-his-TEV-FLS. The source holds these as a separate data set.
In assay [18] the target is T6, pxENB12-FLS-His. This is another data set of the same source.
The target in assay [19] is T2, pxENB17-RBD-His. The source holds these as a separate data set.
In assay [20] the target is pxENBEP18_Spike_Nuc(1-182)_10xHis (SARS-CoV-2).
Assay [21] has as its target T7, pxENB2-His-TEV-FLS-CT. The source holds these as a separate data set.
Assay [22] has as its target pxENBCP19-FLS-CT-His-StrepTagII (SARS-CoV-2, UniProt P0DTC2 15-1213).

B1: pxEBN9-ACE2-AAA-SBP-His (receptor)
chain: QSTIEEQAKTFLDKFNHEAEDLFYQSSLASWNYNTNITEENVQNMNNAGDKWSAFLKEQSTLAQMYPLQEIQNLTVKLQLQALQQNGSSVLSEDKSKRLNTILNTMSTIYSTGKVCNPDAPAECLLLEPGLNEIMANSLDYNERLWAWESWRSEVGKALRPLYEEYVVLKNEMARANHYEDYGDYWRGDYEVNGVDGYDYSRGQLIEDVEHTFEEIKPLYEHLHAYVRAKLMNAYPSYISPIGCLPAHLLGDMWGRFWTNLYSLTVPFGQKPNIDVTDAMVDQAWDAQRIFKEAEKFFVSVGLPNMTQGFWENSMLTDPGNVQKAVCHPTAWDLGKGDFRILMCTKVTMDDFLTAHHEMGHIQYDMAYAAQPFLLRNGANEGFHEAVGEIMSLSAATPKHLKSIGLLSPDFQEDNETEINFLLKQALTIVGTLPFTYMLEKWRWMVFKGEIPKDQWMKKWWEMKREIVGVVEPVPHDETYCDPASLFHVSNDYSFIRYYTRTLYQFQFQEALCQAAKHEGPLHKCDISNSTEAGQKLFNMLRLGKSEPWTLALENVVGAKNMNVRPLLNYFEPLFTWLKDQNKNSFVGWSTDWSPYADGGGSMDEKTTGWRGGHVVEGLAGELEQLRARLEHHPQGQREPHHHHHHHH
As to B1, the Kd in the assay with pxENB9-FLS-CT-His [1] was 13.4 µM; in the assay with pxENB17-RBD-His [3] it was 32600 nM. In addition, in the assay with pxENB17-RBD-His [2], the “Response, shift in Wavelength (nm)” value worked out at 0.0002 nm.

B2: pxEBN4-ACE2-AAA-His (receptor)
chain: QSTIEEQAKTFLDKFNHEAEDLFYQSSLASWNYNTNITEENVQNMNNAGDKWSAFLKEQSTLAQMYPLQEIQNLTVKLQLQALQQNGSSVLSEDKSKRLNTILNTMSTIYSTGKVCNPDAPAECLLLEPGLNEIMANSLDYNERLWAWESWRSEVGKALRPLYEEYVVLKNEMARANHYEDYGDYWRGDYEVNGVDGYDYSRGQLIEDVEHTFEEIKPLYEHLHAYVRAKLMNAYPSYISPIGCLPAHLLGDMWGRFWTNLYSLTVPFGQKPNIDVTDAMVDQAWDAQRIFKEAEKFFVSVGLPNMTQGFWENSMLTDPGNVQKAVCHPTAWDLGKGDFRILMCTKVTMDDFLTAHHEMGHIQYDMAYAAQPFLLRNGANEGFHEAVGEIMSLSAATPKHLKSIGLLSPDFQEDNETEINFLLKQALTIVGTLPFTYMLEKWRWMVFKGEIPKDQWMKKWWEMKREIVGVVEPVPHDETYCDPASLFHVSNDYSFIRYYTRTLYQFQFQEALCQAAKHEGPLHKCDISNSTEAGQKLFNMLRLGKSEPWTLALENVVGAKNMNVRPLLNYFEPLFTWLKDQNKNSFVGWSTDWSPYADGGGSHHHHHHHH
As for B2, the Kd with pxENB9-FLS-CT-His [4] was 36.6 nM; with commercial RBD protein it was 0.2 nM; with pxENB17-RBD-His [5], 32.6 nM; with pxENB9-FLS-CT-His [6] it was less than 1 pM; in the assay with pxENB8-FLS-TN-His [7] it was 6.51 nM; in the assay with pxENB1-His-TEV-FLS-TN [8], 3.9 nM. The Kd in the assay with pxENB5-his-TEV-FLS [9] is 16.6 nM; with pxENB12-FLS-His [10], 3.19 nM; in the assay with pxENB2-His-TEV-FLS-CT [11] it was 1.1 nM; with pxENB9-FLS-CT-His [12] it was less than 1 pM; in the assay with pxENB14-His-TEV-RBD, 0.156 nM; in the assay with pxEBNCP2-tPa-His-TEV-S1, 34.2 nM. Besides, the Kd in [13] is 26.9 nM; with pxEBNCP16-IL2-FLS-CT-His it was 1.46 nM; with pxEBNCP1-His-TEV-S1, 22.8 nM; in the assay with pxENB8-FLS-TN-His [14], 12.4 nM; in the assay with pxENB1-His-TEV-FLS-TN [15], 69.2 nM; in assay [16] it was less than 1 pM. The Kd was determined as 19.5 nM with pxENB5-his-TEV-FLS [17]; 13.1 nM in the assay with pxENB12-FLS-His [18]; 45 nM with pxEBNCP4-tPa-S1-His; 0.242 nM with pxENB17-RBD-His [19]; 21.6 nM in assay [20]; 39.6 nM with pxEBNCP3-S1-His. Further, the Kd was 6.13 pM in the assay with pxEBNCP14-tPa-FLS-CT-His; 0.45 nM with pxENB2-His-TEV-FLS-CT [21]; 7.09 pM with pxAM-FLS-A-TB-His; 51.6 nM in the assay with pxENBCP20-FLS-CT-His-TST; 90.8 nM in assay [22]; 51.5 nM with pxENBCP17-FLS-CT-His-SBP.

B3: pxEBNCP13_hACE2-AAA-SBP (receptor)
chain: QSTIEEQAKTFLDKFNHEAEDLFYQSSLASWNYNTNITEENVQNMNNAGDKWSAFLKEQSTLAQMYPLQEIQNLTVKLQLQALQQNGSSVLSEDKSKRLNTILNTMSTIYSTGKVCNPDAPAECLLLEPGLNEIMANSLDYNERLWAWESWRSEVGKALRPLYEEYVVLKNEMARANHYEDYGDYWRGDYEVNGVDGYDYSRGQLIEDVEHTFEEIKPLYEHLHAYVRAKLMNAYPSYISPIGCLPAHLLGDMWGRFWTNLYSLTVPFGQKPNIDVTDAMVDQAWDAQRIFKEAEKFFVSVGLPNMTQGFWENSMLTDPGNVQKAVCHPTAWDLGKGDFRILMCTKVTMDDFLTAHHEMGHIQYDMAYAAQPFLLRNGANEGFHEAVGEIMSLSAATPKHLKSIGLLSPDFQEDNETEINFLLKQALTIVGTLPFTYMLEKWRWMVFKGEIPKDQWMKKWWEMKREIVGVVEPVPHDETYCDPASLFHVSNDYSFIRYYTRTLYQFQFQEALCQAAKHEGPLHKCDISNSTEAGQKLFNMLRLGKSEPWTLALENVVGAKNMNVRPLLNYFEPLFTWLKDQNKNSFVGWSTDWSPYADGGSGMDEKTTGWRGGHVVEGLAGELEQLRARLEHHPQGQREP
For the molecule B3, the Kd in the assay with pxENB9-FLS-CT-His [1] was determined as 10.5 µM; with pxENB17-RBD-His [3], 401 nM. The “Response, shift in Wavelength (nm)” value with pxENB17-RBD-His [2] is 0.0102 nm.

B4: pxEBNCP24_hACE2-AAA-p53-SBP (receptor)
chain: QSTIEEQAKTFLDKFNHEAEDLFYQSSLASWNYNTNITEENVQNMNNAGDKWSAFLKEQSTLAQMYPLQEIQNLTVKLQLQALQQNGSSVLSEDKSKRLNTILNTMSTIYSTGKVCNPDAPAECLLLEPGLNEIMANSLDYNERLWAWESWRSEVGKALRPLYEEYVVLKNEMARANHYEDYGDYWRGDYEVNGVDGYDYSRGQLIEDVEHTFEEIKPLYEHLHAYVRAKLMNAYPSYISPIGCLPAHLLGDMWGRFWTNLYSLTVPFGQKPNIDVTDAMVDQAWDAQRIFKEAEKFFVSVGLPNMTQGFWENSMLTDPGNVQKAVCHPTAWDLGKGDFRILMCTKVTMDDFLTAHHEMGHIQYDMAYAAQPFLLRNGANEGFHEAVGEIMSLSAATPKHLKSIGLLSPDFQEDNETEINFLLKQALTIVGTLPFTYMLEKWRWMVFKGEIPKDQWMKKWWEMKREIVGVVEPVPHDETYCDPASLFHVSNDYSFIRYYTRTLYQFQFQEALCQAAKHEGPLHKCDISNSTEAGQKLFNMLRLGKSEPWTLALENVVGAKNMNVRPLLNYFEPLFTWLKDQNKNSFVGWSTDWSPYADGGGSKPLDGEYFTLQIRGRERFEMFRELNEALELKDAQAGKEPGGGSGMDEKTTGWRGGHVVEGLAGELEQLRARLEHHPQGQREP
For the molecule B4, the figures for the Kd in the assay with pxENB9-FLS-CT-His [1] and in the assay with pxENB17-RBD-His [3] were 1e-06 µM and 0.231 nM, respectively. The “Response, shift in Wavelength (nm)” value with pxENB17-RBD-His [2] was found to be 0.028 nm.
